“And” between values parts separate entries of the source, which are not always exact repeats. Identical values can stand only once. Like-named read-outs stand apart in the source and are kept apart here.
Key:
[1] = molecular target: soluble extracellular fragment of TLT-1 (sTLT-1) (human) (UniProt Q86YW5); test: SPR; Biacore 8K, 25 °C; biAb (0.5-4 nM) captured on immobilised anti-human IgG on a CM4 chip; FVIIa (0-4 nM) or sTLT-1 (0-60 μM) injected; 10 mM HEPES, 150 mM NaCl, 0.05% polysorbate 20, pH 7.4, 5 mM CaCl2, 1 mg/ml BSA; Langmuir 1:1 kinetics; n = 2
[2] = molecular target: soluble extracellular fragment of TREM-like transcript-1 (Homo sapiens (Human).) (UniProt Q86YW5); test: SPR; Biacore 8K, 25 °C; biAb (0.5-4 nM) captured on immobilised anti-human IgG (CM4 chip); FVIIa (0-4 nM) or sTLT-1 (0-60 μM) injected; 10 mM HEPES, 150 mM NaCl, 0.05% polysorbate 20, pH 7.4, 5 mM CaCl2, 1 mg/ml BSA; Langmuir 1:1 kinetics model; n = 2
[3] = molecular target: recombinant activated coagulation factor VII (Homo sapiens) (UniProt P08709); test: as above
[4] = molecular target: recombinant activated coagulation factor VII (Homo sapiens) (UniProt P08709); test: SPR; Biacore 8K, 25 °C; FVIIa or FVII (2.5 nM) captured on immobilised anti-FVII IgG1 (CaFVII-22, against the Gla domain; CM4 chip); HMB-001 (0-4 nM) injected; 10 mM HEPES, 150 mM NaCl, 0.05% polysorbate 20, pH 7.4, 5 mM CaCl2, 1 mg/ml BSA; Langmuir 1:1 kinetics model; n = 2
[5] = molecular target: recombinant zymogen FVII (Homo sapiens) (UniProt P08709); test: as above
[6] = molecular target: recombinant activated coagulation factor VII (rFVIIa, NovoSeven) (Homo sapiens) (UniProt P08709); test: SPR; Biacore 8K, 25 °C; FVIIa or FVII (2.5 nM) captured on immobilised anti-FVII IgG1 (against the Gla domain) on a CM4 chip; HMB-001 0-4 nM injected; 10 mM HEPES, 150 mM NaCl, 0.05% polysorbate 20, pH 7.4, 5 mM CaCl2, 1 mg/ml BSA; Langmuir 1:1 kinetics; n = 2
[7] = molecular target: recombinant zymogen FVII (Homo sapiens) (UniProt P08709); test: as above
[8] = molecular target: soluble extracellular fragment of TREM-like transcript-1 (Homo sapiens (Human).) (UniProt Q86YW5); test: SPR; Biacore 8K, 25 °C; biAb (0.5-4 nM) captured on immobilised anti-human IgG (CM4 chip); FVIIa (0-4 nM) or sTLT-1 (0-60 μM) injected; 10 mM HEPES, 150 mM NaCl, 0.05% polysorbate 20, pH 7.4, 5 mM CaCl2, 1 mg/ml BSA; Langmuir 1:1 kinetics model; n = 2; remark: listed apart in the source
[9] = molecular target: T1, sTLT-1 stalk peptide (37-mer TLT-1 peptide) (human); test: crystal structure; gel-filtrated 1:1 Fab-sTLT-1 stalk peptide complex; sitting-drop vapor diffusion at 18 °C; 1 M LiCl, 0.1 M Na citrate-citric acid pH 4.0, 20% PEG 6000; two complexes in the asymmetric unit; settings: both partners purified
T1 construct: TREM-like transcript-1 (TLT-1), amino acids 111-147 of mature TLT-1; numbers count on: the mature protein; Amino acids 7-21 of the peptide are seen in the crystal structure; also called synthetic stalk peptide of TLT-1; source: synthetic peptide
T1 chain: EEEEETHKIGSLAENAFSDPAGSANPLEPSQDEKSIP

[10] = molecular target: T2, recombinant activated coagulation factor VII (rFVIIa, NovoSeven) (Homo sapiens, UniProt P08709); test: SPR; SPR binding assay of the monovalent control antibodies with their antigens; format not told; settings: both partners purified
T2 construct: source: bought: NovoSeven, Novo Nordisk

[11] = molecular target: T3, soluble extracellular fragment of TLT-1 (sTLT-1) (human, UniProt Q86YW5); test: as above; settings: both partners purified
T3 construct: TREM-like transcript-1 (TLT-1), amino acids 1-147 of mature TLT-1 (IgV domain 1-110 and stalk 111-147); numbers count on: the mature protein; two amino acid (valine-aspartic acid) linker before the His tag, told in words; source: CHO cells (ExpiCHO), transient transfection, purified (HisTrap); not shown: His tag, C-terminal, kept

[12] = molecular target: T4, active site-inhibited FVIIa:soluble TF complex (FVIIai:sTF) (human | , UniProt P08709;P13726, active site inhibited with H-D-Phe-Phe-Arg-chloromethyl ketone (FFR-cmk)); test: crystal structure; SEC-purified Fab:FVIIai:sTF complex; sitting-drop vapor diffusion at 18 °C; 0.15 M CsCl, 15% PEG 3350; four complexes in the asymmetric unit; settings: both partners purified
T4 construct: as the light chain of m8: factor VIIa light chain without the N-terminal Gla domain; as the heavy chain of m8: factor VIIa heavy chain (protease domain); as m9: tissue factor, amino acids 1-219; also called FVIIa:sTF complex; source: FVIIai from CHO cells and sTF from Escherichia coli; SEC-purified together with the Fab; copies: + +

[13] = molecular target: T5, active site-inhibited FVIIa (FVIIai), prepared from FVIIa-desGLA (Homo sapiens, active site inhibited with H-D-Phe-Phe-Arg-chloromethyl ketone (FFR-cmk)); test: as above; settings: both partners purified
T5 construct: source: CHO cells (CHO-EBNA), purified (VIISelect, desalted), then incubated with FFR-cmk
T5 chain 1: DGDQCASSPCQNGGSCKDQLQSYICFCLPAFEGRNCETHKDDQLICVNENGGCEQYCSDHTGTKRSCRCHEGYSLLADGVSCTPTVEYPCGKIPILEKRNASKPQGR
T5 chain 2: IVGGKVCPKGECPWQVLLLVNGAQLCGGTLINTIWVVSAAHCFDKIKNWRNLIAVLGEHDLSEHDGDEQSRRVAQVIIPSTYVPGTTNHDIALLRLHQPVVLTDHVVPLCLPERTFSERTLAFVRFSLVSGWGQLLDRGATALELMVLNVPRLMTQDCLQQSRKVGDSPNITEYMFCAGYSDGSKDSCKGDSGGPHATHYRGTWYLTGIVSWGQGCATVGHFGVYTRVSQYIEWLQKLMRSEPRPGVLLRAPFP

Molecule: HMB-001 (bispecific antibody)
- Kd [1]: 2.3 nM
- Kd [2]: 2.34 nM
- koff [2]: 0.000641 s⁻¹
- kon [2]: 274000 M⁻¹ s⁻¹
- Kd [3]: 0.04 nM
- koff [3]: 0.000127 s⁻¹
- kon [3]: 2.9e+06 M⁻¹ s⁻¹
- Kd [4]: 0.37 nM
- koff [4]: 0.000664 s⁻¹ and 0.000665 s⁻¹ and 0.000666 s⁻¹
- kon [4]: 1.8e+06 M⁻¹ s⁻¹
- Kd [5]: 0.4 nM
- koff [5]: 0.000725 s⁻¹
- kon [5]: 1.83e+06 M⁻¹ s⁻¹ and 1.82e+06 M⁻¹ s⁻¹
- Kd [6]: 0.37 nM
- Kd [7]: 0.4 nM
- Kd [8]: 2.33 nM and 2.35 nM
- koff [8]: 0.00061 s⁻¹ and 0.000672 s⁻¹
- kon [8]: 262000 M⁻¹ s⁻¹ and 286000 M⁻¹ s⁻¹

B1: anti-TLT-1 Fab fragment of HMB-001 (Fab, V domains shown)
VH: EVQLVESGGGLVQPGGSLRLSCAASGFTFSRYWMTWVRQAPGKGLVWVGEINPDSSTINYAPSVKGRFTISRDNAKNTLYLQMNSLRAEDTAVYYCASGVFTSWGQGTLVTVSS
VL: DIVMTQTPLSSPVTLGQPASISCRSSQSLVHRQGNTYFHWLQQRPGQPPRLLIYKVSNRFSGVPDRFSGSGAGTDFTLKISRVEAEDVGVYYCSQSTHVPYTFGQGTKLEIK
notes: Fab part of the heavy chain of the anti-TLT-1 arm of m1; heavy chain of the Fab in PDB 8CHE; as the light chain of the anti-TLT-1 arm of m1; light chain of the Fab in PDB 8CHE; source: CHO cells, purified (KappaSelect)
- binding result [9]: binds

B2: monovalent control antibody with the FVIIa-binding arm of HMB-001 (antibody, V domains shown)
VH: QVQLQESGPGLVKPSQTLSLTCTVSGYSISSDSAWSWIRQPPGKGLEWIGYIQYSGSTNYNPSLKSRVTISRDTSKNQFSLKLSSVTAADTAVYYCARSVNYYGNSFAVGYWGQGTLVTVSS
VL: EIVLTQSPATLSLSPGERATLSCRASQGISDYLHWYQQKPGEAPRLLIKYTSQPATGIPARFSGSGSGTDFTLTISSLEPEDFAVYYCQNGHSFPLTFGQGTKLEIK
notes: as the heavy chain of the anti-FVIIa arm of m1; Fab part in PDB 8CN9; constant part as in PDB 5DK3 with the DuoBody mutations (EU numbering); as the light chain of the anti-FVIIa arm of m1; light chain of the Fab in PDB 8CN9; empty Fc, E216-G446 in EU numbering; About 100 kDa; also called anti-FVIIa cAb; monovalent cAb; source: DuoBody assembly of the parental anti-FVIIa antibody with an empty …
- binding result [10]: binds

B3: monovalent control antibody with the TLT-1-binding arm of HMB-001 (antibody, V domains shown)
VH: B1 VH
VL: B1 VL
notes: as the heavy chain of the anti-TLT-1 arm of m1 (without DuoBody mutations); Fab part in PDB 8CHE; constant part as in PDB 5DK3; as the light chain of the anti-TLT-1 arm of m1; light chain of the Fab in PDB 8CHE; empty Fc, E216-G446 in EU numbering; About 100 kDa; also called anti-TLT-1 cAb; monovalent cAb; source: DuoBody assembly of the parental anti-TLT-1 antibody with an empty Fc; purified by …
- binding result [11]: binds

B4: anti-FVIIa Fab fragment of HMB-001 (Fab, V domains shown)
VH: B2 VH
VL: B2 VL
notes: Fab part of the heavy chain of the anti-FVIIa arm of m1; heavy chain of the Fab in PDB 8CN9; as the light chain of the anti-FVIIa arm of m1; light chain of the Fab in PDB 8CN9; also called anti-FVII Fab of HMB-001; source: HEK293 suspension cells (293Expi), transient transfection, purified (MabSelect SuRe)
- binding result [12]: binds
- binding result [13]: binds

From paper PMC11358003, “A bispecific antibody approach for the potential prophylactic treatment of inherited bleeding disorders” (Nature Cardiovascular Research, 2024)
